Laboratory results reported in patent US20170009288, “METHOD FOR CONTROLLED DNA FRAGMENTATION” (THERMO FISHER SCIENTIFIC BALTICS UAB, published 2017).

Key:
[1] = molecular target: T1, MuA transposase (UniProt P07636 P07636:1-663); assay: EMSA; no apparent complex formation; conditions: tags: Thermo Scientific F-750 (stand-alone MuA transposase); chain copies: 4
Protocol: (§1) In parallel, EMSA analysis was performed for all pre-formed MuA-transposon complexes used in the first experiment (Table 3). DNA shifts resulting from transposome complex formation were analyzed using agarose gel electrophoresis in 2% agarose gel containing 87 μg/ml BSA and 87 μg/ml heparin in 1×TBE buffer. DNA was stained with ethidium bromide. […] Weaker complexes were formed with transposons No. 5, 10, 11.

[2] = molecular target: T1, MuA transposase; assay: EMSA; strong complex; 2% agarose with BSA and heparin, 1xTBE; assembled 30 C 1 h; conditions: tags: Thermo Scientific F-750 (stand-alone MuA transposase); chain copies: 4; 5' overhang TGCT side of non-transferred strand
Protocol: as §1

T1 sequence (P07636 whole entry, one chain of several): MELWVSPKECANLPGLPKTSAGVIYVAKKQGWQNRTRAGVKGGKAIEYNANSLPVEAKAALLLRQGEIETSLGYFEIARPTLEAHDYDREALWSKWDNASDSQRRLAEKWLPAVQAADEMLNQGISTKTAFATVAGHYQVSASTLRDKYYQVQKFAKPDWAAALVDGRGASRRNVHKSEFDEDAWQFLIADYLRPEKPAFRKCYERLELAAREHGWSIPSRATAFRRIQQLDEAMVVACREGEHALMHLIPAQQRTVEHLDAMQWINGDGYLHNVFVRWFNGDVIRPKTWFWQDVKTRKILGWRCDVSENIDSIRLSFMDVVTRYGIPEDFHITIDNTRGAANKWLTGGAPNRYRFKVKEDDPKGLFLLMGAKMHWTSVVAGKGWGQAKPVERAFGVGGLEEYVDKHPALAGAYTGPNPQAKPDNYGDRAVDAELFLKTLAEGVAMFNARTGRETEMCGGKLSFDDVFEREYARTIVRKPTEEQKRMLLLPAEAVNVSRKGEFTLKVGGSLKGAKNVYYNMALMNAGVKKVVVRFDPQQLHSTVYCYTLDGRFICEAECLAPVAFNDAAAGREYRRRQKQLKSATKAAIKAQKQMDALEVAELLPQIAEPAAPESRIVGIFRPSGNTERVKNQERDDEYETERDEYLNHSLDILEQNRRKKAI

Binder	binding result [1]	binding result [2]
Transposon No. 9 (dsDNA) DNA 1: GTTCTCGCATCTATCGTGAAAAGCTTCTCCGTTCTTCGGCCGCCGCTTCA DNA 2: TGCTGAAGCGGCGGCCGAAGAACGGAGAAGCTTTTCACGATAGATGCGAGAAC	no binding	
Control native Mu transposon end (dsDNA) DNA 1: GTTTTCGCATTTATCGTGAAACGCTTTCGCGTTTTTCGTGCGTCAGTTCA DNA 2: TGCTGAACTGACGCACGAAAAACGCGAAAGCGTTTCACGATAAATGCGAAAAC		binds
